test: soluble on expression in E. coli; label from the status in PepcDB or PDB records

Sequence | soluble on expression in E. coli
MDERDALRISREIAGEVRKAIASMPLRERVKDVGMGKDGTPTKAADRVAEDAALEILRKERVTVVTEESGVLGEGDVFVALDPLDGTFNATRGIPVYSVSLCFSYSDKLKDAFFGYVYNLATGDEYYADSSGAYRNGERIEVSDAEELYCNAIIYYPDRKFPFKRMRIFGSAATELCFFADGSFDCFLDIRPGKMLRIYDAAAGVFIAEKAGGKVTELDGESLGNKKFDMQERLNIVAANEKLHPKLLELIK | soluble
MFTGIIEETGTIESMKKAGHAMALTIKCSKILEDVHLGDSIAVNGICLTVTDFTKNQFTVDVMPETVKATSLNDLTKGSKVNLERAMAANGRFGGHFVSGHVDGTAEITRIEEKSNAVYYDLKMDPSLTKTLVLKGSITVDGVSLTIFGLTEDTVTISLIPHTISETIFSEKTIGSKVNIECDMIGKYMYRFLHKANENKTQQTITKAFLSENGF | soluble
MGSDKIHHHHHHMTKTYHFIGIKGSGMSALALMLHQMGHKVQGSDVEKYYFTQRGLEQAGIQILPFDEKNITADVELIAGNAFRPDNNVEIAYVDAQGYTYKRYHEFLGEFMKGFTSLGVAGAHGKTSTTGLLAHVMRNITDTSFLIGDGTGRGSANAQYFVFESDEYERHFAPYHPEYSIITNIDFDHPDYFTSLEDVFNAFNDYAKQVKKALLVFGEDEQLRRITANAPIYYYGFEENNDFVAYDLKPSTSGSQFKVRHGEEELGEFQIPTFGKHNVMNATAVIANLYIAGFDLQLVAEHLKTFGGVKRRFTEKIVNDTVIIDDFAHHPTEIIATIDAARQKYPSKELVAIFQPHTFTRTIALLDEFADALNGADAVYLAQIYGSARETDNGQVKVEDLAAKINKKGGLVTVENTSPLLDHDNAVYVFMGAGDIQSYEYSFERLLSNLTNNVQ | not soluble
MINSKKELRKNMVLKRDSLEPDLKSIKDNMIYNKVINSIQYKSANNIFVFVSYKSEVDTHNIIRTAIADGKKVFVPKVISKEKGMEAAEIRGFFDLEKSAYGILEPKSSNYIEPESIELLLVPGLAFDESGGRIGYGGGFYDRYMSLLDKSAVKVGICYDFQVIDKVIMNINDVPVDKIIVGLEHHHHHH | not soluble
MGSSHHHHHHSSGLVPRGSHMSKARVYADVNVLRPKEYWDYEALTVQWGEQDDYEVVRKVGRGKYSEVFEGINVNNNEKCIIKILKPVKKKKIKREIKILQNLCGGPNIVKLLDIVRDQHSKTPSLIFEYVNNTDFKVLYPTLTDYDIRYYIYELLKALDYCHSQGIMHRDVKPHNVMIDHELRKLRLIDWGLAEFYHPGKEYNVRVASRYFKGPELLVDLQDYDYSLDMWSLGCMFAGMIFRKEPFFYGHDNHDQLVKIAKVLGTDGLNAYLNKYRIELDPQLEALVGRHSRKPWLKFMNADNQHLVSPEAIDFLDKLLRYDHQERLTALEAMTHPYFQQVRAAENSRTRA | soluble
MGSDKIHHHHHHMKDMTNLDNFEVGFDIPAKPGMDAAEIQTPCLVLDLDALERNVKKMGDYAKAHGMRHRVHGKMHKSVDVAKLQERLGGAVGVCCQKVSEAEVFVRGGIKDVLVSNQVRDPLKIDRLAQLPKLGSRIIVCVDDLANVADLSAAALRHGTELEVLIEIDCGAGRCGVGTTQDVVAIARAVDAAENLKFTGIQAYQGAMQHLDKYEDRKAKLDIAIEMVESAVQGLKAVGLDPELVSGGGTGSYYFEANSGVYNELQCGSYAFMDADYGRILDQNGQRIDKGEWENAMFILTQVMSHAKADKAIVDAGLKAQSVDSGLPFVHGRDDVEYIKCSDEHGVVADPNGVLKVGDKLRLVPGHCDPTANVHDWYVGVRGGKVECVWPVSARGKAY | not soluble
MRGLTPEQTLMLADAFCAQTSGDLSVRDYAALNAIAAVTTAHIHAVVVFPTAHHMVKYVRSLVIQLSPLDDRNTDFADFLVAVLRDLNGL | not soluble
MHWQTHTVFNQPIPLNNSNLYLSDGALCEAVTREGAGWDSDFLASIGQQLGTAESLELGRLANVNPPELLRYDAQGRRLDDVRFHPAWHLLMQALCTNRVHNLAWEEDARSGAFVARAARFMLHAQVEAGSLCPITMTFAATPLLLQMLPAPFQDWTTPLLSDRYDSHLLPGGQKRGLLIGMGMTEKQGGSDVMSNTTRAERLEDGSYRLVGHKWFFSVPQSDAHLVLAQTAGGLSCFFVPRFLPDGQRNAIRLERLKDKLGNRSNASCEVEFQDAIGWLLGLEGEGIRLILKMGGMTRFDCALGSHAMMRRAFSLAIYHAHQRHVFGNPLIQQPLMRHVLSRMALQLEGQTALLFRLARAWDRRADAKEALWARLFTPAAKFVICKRGMPFVAEAMEVLGGIGYCEESELPRLYREMPVNSIWEGSGNIMCLDVLRVLNKQAGVYDLLSEAFVEVKGQDRYFDRAVRRLQQQLRKPAEELGREITHQLFLLGCGAQMLKYASPPMAQAWCQVMLDTRGGVRLSEQIQNDLLLRATGGVCV | soluble
MDLNVKQSGIHSVALHTTYFQNRSGKVYKRAEERYLRNDLSCGLAQCGTCKDFGTNPLLKIENPVRNAKVGRHALIVDSTSLIRFYDLFDSSLLRDLIVTQTVWEGVKAKAVPAYKKMNSLCYEDAKDRFHVFMNEFHCETFSESSKFEDLSRGEELLLSTALYLKTHWQKHNVAPVVLVFDEDSKKRMENHYQHVMYLKEYIQNLEDPGKQALLDQMAAYESSGNGNEKQIFDEYLSHDRIMEGIASGTIKRGNFSVSRENYREATVIIDDQLTSWFITGNNCNRAVNGDTVAVQLLPEDQWTAPEKKIRLRDVEEYVKTADDMGNEDEENDDENDEPKAKKSKKMTVSTAKVVGIIKRNWREYCGMLLPSTVKGARRHLFCPAERLIPRIRIETEQAETLSQQRIVVAIDHWPRDSKYPLGHYVRSIGEMGSRETENEVLLLEHDIPHAPFSESVLDCLPREEWEPDLTENRGPLPRVDLRDLTICSVDPLGCTDIDDALHCKQIGEDLFEVGVHIADVTHFVRPGTAIDDEAALRGTTVYLCDRRIDMLPCLLSSNLCSLRGEEERYAFSCIWTMTSSADIQSVKYHKSLIKSKAALTYEKAQEIIDDPKEQNDVALGLRGLMKLSKVLNARRTGNGALTLASSEVRFDMDWESRTPKKVMEKQHLDTHSMVEEFMLLANISVAEKILEEYPDCALLRRHPVPLKESYKPLVEAARHRGFEIIVESGKGLADSLNRCVDKKNPMLNRLLRMLTTRCMTQAVYFSAGKDGFSDIKLEEKKFFVLKTLNLPYRSCLCDDTETSIHLSRGLNDYFLFKKEKLHMSVGVLFKLFDCLGTVPVPQYQHFGLACAIYTHFTSPIRRYADVIVHRLLAAAIGADDIQSGLLNQARCTKICTNINYRHKQAQYAGRASVQLNVVRYFKGKVETCEGFVMGVRNNGIQVFVPKYGLESIIVLQTSAASGTTIDVEEMSVKVNGDVVIKELEPVTVRISVNEKNQQRPRVELQLIKPAIPGLSVDFDLSSSEGLGL | not soluble
MGSDKIHHHHHHMFFEGVEQLIEEILKLRKQGLSFRKIAQALNTTVGKVHYRYKKHEELQHQKGQAKPAAKGEWQLPGSYPVTEITLLPQGPTTLYAFWDTSEQTRGLVSYQTDKDWEQLEKRLRLYDVTSLLFDGRRANRYVDIHLPEMTNNWLIEHVEPNCTYLIDLGVITPSGAFLPVVRSTPIETPRQRNDQYNFRKEDVLDWQYGLSEEPKWLEHFSTYSYYEKTK | not soluble
MDIGDNSKFDSATDLPVEQEQEQETEQEGEPEESSEQDLVEEVDWKDIPVPADAGPNMKWEFQEISDNFEYEAPADNKGSEFLEKWDDFYHNAWAGPGLTEWKRDRSYVADGELKMWATRKPGSDKINMGCITSKTRVVYPVYIEARAKVMNSTLASDVWLLSADDTQEIDILEAYGADYSESAGKDHSYFSKKVHISHHVFIRDPFQDYQPKDAGSWFEDGTVWNKEFHRFGVYWRDPWHLEYYIDGVLVRTVSGKDIIDPKHFTNTTDPGNTEIDTRTGLNKEMDIIINTEDQTWRSSPASGLQSNTYTPTDNELSNIENNTFGVDWIRIYKPVEKLEHHHHHH | soluble
MEHDERTHVPVELRAAGVVLLNERGDILLVQEKGIPGHPEKAGLWHIPSGAVEDGENPQDAAVREACEETGLRVRPVKFLGAYLGRFPDGVLILRHVWLAEPEPGQTLAPAFTDEIAEASFVSREDFAQLYAAGQIRMYQTKLFYADALREKGFPALPV | soluble
MAHHHHHHMQPMVLPYVDRKPPISKVMDARVLVWRESERMLRNGEGAAECSYAQKLQVLRSQQLADARKYMDTSAAMRSVKPVLATSSVDADDDDEFCRKRSRESEGPSVDEIRRFEGKLGETLALELTLWSLRRGSHGGVRSQRYTTALHALQDTQKLLRKTLQQMEEINALRFLEQQQFLKVNSEKARLLHVRLRNVRALENILRGNGKRRGSTLLATLE | not soluble
MGSDKIHHHHHHMPFIIDYQCLCAINSEIKMFSGEQLGQAISEAIKRKNVSQKEVADHFGVKQPSVSGWIKNGRIDKKHLDKLIDYFSDVVTPSHFGIETFRVLKSNEQSSIRFPRLNAEATCGAGTINDHYIEVVDYVTVAAAWAREKLGGNLNKIQVITARGDSMEPTIENGDVMFVDTAVEAFDGDGLYLLWYIDGLKAKRLQSTVGGGLMIISDNSSYRTETVRGEDLNAVRIIGRIRGAWRLSQF | not soluble
MKTIVVLGAGYAGLKTVVALQKKLRKEVRIILIDRNPYHYETMRLYEVASGSAPYTRMSYELADVLDKNMNELVVDQVEKIDLKNKTVELTKHKPISYDYCVVGLGFVLSSMGIAGAQENALPMSNVKQAQAIRDHIESEMRAYVKDHDSQHLSIVICGAGFQAIELAGALAQARPCFAQTAGTDPEKITIKMIDGSPRLLPMFQGKLLDYAINLSALEHHHHHH | not soluble
MMNKDLSYCIVLSSEQLSYLAGSKYGIDRMKILNRLIEATVLEQTEYSKKGFAMTLQVGQAALSEVELSCKLGYDKKTISRVIDKMNQLGIVASVQSNRTSIHTQKCVSAWMLDGKRIDNPFYVRMKNRKDGNEKTANRPYNNSILPMKQQHILESNAEANCPTQTQTDNTAVSDETYSPDLSTSPTSSETPVTAYDDKNRNGYDELKAETNNHELLHTPTTTSGYEIAGNGSDNDAAQVNSTSAYPTTTLASPQPLAEEEPTNDQGNDWQL | not soluble
MSLEMTIAYIQENPYRLADEISGIGFKKADQIARAMGISLNSKYRIHSGIKYMLGTFHGEGHTYAPGDILIDRTRELLSVEESEVVEGIQELALKQKIQLERQDEEIIVYSMPYFYAETNTCNKLIELSQVELEPLEIDVDYEIESIEKEDGIALATNQKEAIRQSIENGIIVITGGPGTGKTTIINTLIKVFGKLKKKILLAAPTGRASKRMTEATGKEAKTIHRLLEMGYSDDDDGMLFQRNEENPLPADIIIIDEVSMVDIMLMNSLLKAISVGTRLIFVGDVDQLPSVGAGNVLRDIIDSKIIKVVRLNEIFRQAEESMIVVNAHKINKGEYPILNHKDKDFYFMSRSRSEDILNTIIGLVKERLPKHYKFDPIKDIQVLTPMKKGEVGSINLNKELQNYLNPPDKYKREKELREKVFRVGDKVMQIKNNYTLKWASLDPDTEERQGEGVFNGDMGYIQHINPEAQELTVFFDDNRSVVYTYTQLDELELAYAITIHKSQGSEFPVVVMPVTWGPPMLLTRNLLYTAITRARSLVVLVGTENYLNLMVSNNKIVERYSGLGIRLKKFYNEGHHHHHH | soluble

Source: the DeepSol protein solubility set
